Results as given in publication PMC5095912.
Values joined by “and” are separate entries in the source; they are usually repeats but may differ in a detail not shown here. Equal values may be shown once.

Molecular target: PKA regulatory subunit RIIα (UniProt P12367)
Assay: native MS; components mixed at equimolar (1:1) ratio in 200 mM NH4OAc, equilibrated at least 10 min at room temperature; nESI on a Synapt G2-Si, 2-5 uM sample; single proteins sprayed alone too; some C + R samples preincubated with staurosporine, K252a or AT13148 before PKI

With “PKA regulatory subunit RIIα (from UniProt P12367 1-401) (natural protein)” the stoichiometry N was 3 and 4 and 2.
